The values below come from the supplement of paper PMC9112550, “Optimization of the antimicrobial peptide Bac7 by deep mutational scanning” (BMC Biology, 2022).

For this data set, the system named is Escherichia coli TOP10. Kind of data set: shrunken log2 fold change of peptide-encoding DNA abundance (4.5 h post-induction vs induction); higher = less antimicrobial activity (less host growth inhibition). As to conditions: time post-induction: 4.5 h; library: site-saturation at positions 5, 18, 19, 20.
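Also: peptides expressed intracellularly from a pBAD plasmid library in pooled LB shake-flask culture, induced with 0.3% L-arabinose, DNA abundance read by NGS, three biological replicates, DESeq2 with apeglm shrinkage.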

For RRIRNRPPRLPRPRPRPFIAPRP, the “shrunken log2 fold change” value was -0.32.
As to RRIRSRPPRLPRPRPRPTMMPRP, the “shrunken log2 fold change” value is -0.253.
To RRIRPRPPRLPRPRPRPFQQPRP belongs -0.000989.
Consider RRIRFRPPRLPRPRPRPVPFPRP, for which the “shrunken log2 fold change” value was -0.102.
RRIRMRPPRLPRPRPRPDGAPRP: the “shrunken log2 fold change” value is 2.17.
Consider RRIRDRPPRLPRPRPRPDYRPRP, for which the “shrunken log2 fold change” value is -0.241.
On to RRIRSRPPRLPRPRPRPKQKPRP, for which the “shrunken log2 fold change” value was -0.000384.
In the case of RRIRHRPPRLPRPRPRPATNPRP it was 0.607; in that of RRIRWRPPRLPRPRPRPTIDPRP, -0.0862; in that of RRIRHRPPRLPRPRPRPREIPRP, 0.0735.
As for RRIRTRPPRLPRPRPRPQLYPRP, the “shrunken log2 fold change” value is -0.0657.
Regarding RRIRSRPPRLPRPRPRPLQPPRP, the “shrunken log2 fold change” value came to 0.474.
With RRIRGRPPRLPRPRPRPVQIPRP, the “shrunken log2 fold change” value amounted to 0.335.
As to RRIRGRPPRLPRPRPRPNWLPRP, the “shrunken log2 fold change” value came to 0.341.
In the case of RRIRHRPPRLPRPRPRPKCYPRP it was -0.0358; in that of RRIRHRPPRLPRPRPRPNPFPRP, -0.67; in that of RRIRTRPPRLPRPRPRPKMDPRP, 0.0289.
Regarding RRIRKRPPRLPRPRPRPHVIPRP, the “shrunken log2 fold change” value was -0.257.
For the sequence RRIRTRPPRLPRPRPRPGEPPRP, the “shrunken log2 fold change” value is -0.026.
Regarding RRIRTRPPRLPRPRPRPDIWPRP, the “shrunken log2 fold change” value was -0.392.
As for RRIRERPPRLPRPRPRPECGPRP, the “shrunken log2 fold change” value worked out at 0.612.
As to RRIRSRPPRLPRPRPRPEIAPRP, the “shrunken log2 fold change” value was 0.00181.
As to RRIRARPPRLPRPRPRPYWFPRP, the “shrunken log2 fold change” value was -0.775.
To RRIRVRPPRLPRPRPRPKGGPRP belongs 0.0495; to RRIRKRPPRLPRPRPRPMMCPRP, 0.0781.
On to RRIRDRPPRLPRPRPRPHHAPRP, for which the “shrunken log2 fold change” value came out at 0.00408.
As to RRIRCRPPRLPRPRPRPVPKPRP, the “shrunken log2 fold change” value is 0.339.
In the case of RRIRFRPPRLPRPRPRPGFVPRP it was 0.126; in that of RRIRGRPPRLPRPRPRPDWSPRP, 0.203; in that of RRIRARPPRLPRPRPRPTGSPRP, 0.841.
Take RRIRHRPPRLPRPRPRPTMVPRP: the “shrunken log2 fold change” value is -0.224.
Regarding RRIRMRPPRLPRPRPRPDWDPRP, the “shrunken log2 fold change” value turned out to be 0.211.
Turning to RRIRRRPPRLPRPRPRPFMIPRP, the “shrunken log2 fold change” value was -0.394.
In the case of RRIRLRPPRLPRPRPRPRDIPRP it was -0.54.
In the case of RRIRNRPPRLPRPRPRPNYAPRP it was -0.178; in that of RRIRYRPPRLPRPRPRPAAEPRP, 0.22; in that of RRIRWRPPRLPRPRPRPWMLPRP, -0.0694.
Turning to RRIRMRPPRLPRPRPRPQPLPRP, the “shrunken log2 fold change” value was found to be 0.224.
As to RRIRRRPPRLPRPRPRPEGHPRP, the “shrunken log2 fold change” value came out at 0.488.
In the case of RRIRSRPPRLPRPRPRPSSWPRP it was 0.206; in that of RRIRFRPPRLPRPRPRPDQEPRP, -0.0176.
For RRIRIRPPRLPRPRPRPWPDPRP, the “shrunken log2 fold change” value was -0.207.
Take RRIRARPPRLPRPRPRPFVEPRP: the “shrunken log2 fold change” value was 0.108.
For RRIRCRPPRLPRPRPRPVMVPRP, the “shrunken log2 fold change” value was -0.211.
For the sequence RRIRDRPPRLPRPRPRPDAIPRP, the “shrunken log2 fold change” value was determined as 0.903.
For RRIRGRPPRLPRPRPRPTQSPRP, the “shrunken log2 fold change” value is 1.08.
Consider RRIRCRPPRLPRPRPRPRYLPRP, for which the “shrunken log2 fold change” value was -0.799.
In the case of RRIRPRPPRLPRPRPRPTMYPRP, the “shrunken log2 fold change” value is 0.125.
In the case of RRIRIRPPRLPRPRPRPSVQPRP, the “shrunken log2 fold change” value is -0.51.
Take RRIRMRPPRLPRPRPRPAPLPRP: the “shrunken log2 fold change” value is 0.541.
To RRIRGRPPRLPRPRPRPKIVPRP belongs 0.278; to RRIRHRPPRLPRPRPRPILGPRP, -0.0179; to RRIRKRPPRLPRPRPRPAQMPRP, 0.139.
Turning to RRIRGRPPRLPRPRPRPQFHPRP, the “shrunken log2 fold change” value is -0.239.
With RRIRGRPPRLPRPRPRPPEHPRP, the “shrunken log2 fold change” value was 0.853.
For RRIRSRPPRLPRPRPRPWGMPRP, the “shrunken log2 fold change” value was -0.0848.
For the sequence RRIRMRPPRLPRPRPRPDFIPRP, the “shrunken log2 fold change” value was -0.0216.
RRIRMRPPRLPRPRPRPGQGPRP: the “shrunken log2 fold change” value turned out to be 0.269.
As for RRIRFRPPRLPRPRPRPETPPRP, the “shrunken log2 fold change” value amounted to 0.752.
RRIRERPPRLPRPRPRPSMMPRP: the “shrunken log2 fold change” value was -0.257.
To RRIRCRPPRLPRPRPRPSCQPRP belongs -0.375; to RRIRQRPPRLPRPRPRPDYEPRP, 0.0301; to RRIRSRPPRLPRPRPRPDMKPRP, -0.43.
For the sequence RRIRPRPPRLPRPRPRPAELPRP, the “shrunken log2 fold change” value was determined as 0.335.
Turning to RRIRHRPPRLPRPRPRPHNPPRP, the “shrunken log2 fold change” value was -0.216.
Consider RRIRLRPPRLPRPRPRPQSGPRP, for which the “shrunken log2 fold change” value is -0.0923.
In the case of RRIRDRPPRLPRPRPRPSGMPRP, the “shrunken log2 fold change” value was -0.0709.
On to RRIRHRPPRLPRPRPRPMQNPRP, for which the “shrunken log2 fold change” value is -0.0144.
On to RRIRKRPPRLPRPRPRPIKKPRP, for which the “shrunken log2 fold change” value was -0.077.
In the case of RRIRLRPPRLPRPRPRPSYQPRP it was -0.255; in that of RRIRCRPPRLPRPRPRPLVVPRP, -0.347.
Regarding RRIRPRPPRLPRPRPRPWMSPRP, the “shrunken log2 fold change” value was -0.166.
Turning to RRIRIRPPRLPRPRPRPQLGPRP, the “shrunken log2 fold change” value was -0.0971.
With RRIRERPPRLPRPRPRPMISPRP, the “shrunken log2 fold change” value was -0.11.
As to RRIRFRPPRLPRPRPRPWAEPRP, the “shrunken log2 fold change” value is 0.212.
Take RRIRKRPPRLPRPRPRPHATPRP: the “shrunken log2 fold change” value was determined as 1.06.
For RRIRRRPPRLPRPRPRPEEPPRP, the “shrunken log2 fold change” value came to 0.24.
In the case of RRIRYRPPRLPRPRPRPWGCPRP it was -0.404; in that of RRIRGRPPRLPRPRPRPTCIPRP, 0.351; in that of RRIRGRPPRLPRPRPRPPLIPRP, 0.669.
For the sequence RRIRRRPPRLPRPRPRPACCPRP, the “shrunken log2 fold change” value was determined as 0.714.
Regarding RRIRHRPPRLPRPRPRPEVHPRP, the “shrunken log2 fold change” value worked out at 0.16.
In the case of RRIRDRPPRLPRPRPRPFKWPRP it was -0.0034.
Take RRIRERPPRLPRPRPRPPSQPRP: the “shrunken log2 fold change” value was -0.213.
As for RRIRDRPPRLPRPRPRPMIDPRP, the “shrunken log2 fold change” value was determined as 0.141.
With RRIRDRPPRLPRPRPRPKDCPRP, the “shrunken log2 fold change” value is 0.173.
To RRIRYRPPRLPRPRPRPMTPPRP belongs -0.0195; to RRIRHRPPRLPRPRPRPDTDPRP, -0.0683; to RRIRTRPPRLPRPRPRPGYWPRP, -0.0903.
To RRIRHRPPRLPRPRPRPTSEPRP belongs 0.0261.
In the case of RRIRKRPPRLPRPRPRPLTMPRP it was 0.185.
